According to patent US20080200369A1 (SANFORD BURNHAM MEDICAL RESEARCH INSTITUTE, published 2008):

Biological target: T1, [^35S]-tastin (UniProt Q12815 1-778, limits assumed, [^35S]-methionine labeled)
T1 construct: also called in vitro translated [^35S]-labeled tastin
T1 sequence (looked up): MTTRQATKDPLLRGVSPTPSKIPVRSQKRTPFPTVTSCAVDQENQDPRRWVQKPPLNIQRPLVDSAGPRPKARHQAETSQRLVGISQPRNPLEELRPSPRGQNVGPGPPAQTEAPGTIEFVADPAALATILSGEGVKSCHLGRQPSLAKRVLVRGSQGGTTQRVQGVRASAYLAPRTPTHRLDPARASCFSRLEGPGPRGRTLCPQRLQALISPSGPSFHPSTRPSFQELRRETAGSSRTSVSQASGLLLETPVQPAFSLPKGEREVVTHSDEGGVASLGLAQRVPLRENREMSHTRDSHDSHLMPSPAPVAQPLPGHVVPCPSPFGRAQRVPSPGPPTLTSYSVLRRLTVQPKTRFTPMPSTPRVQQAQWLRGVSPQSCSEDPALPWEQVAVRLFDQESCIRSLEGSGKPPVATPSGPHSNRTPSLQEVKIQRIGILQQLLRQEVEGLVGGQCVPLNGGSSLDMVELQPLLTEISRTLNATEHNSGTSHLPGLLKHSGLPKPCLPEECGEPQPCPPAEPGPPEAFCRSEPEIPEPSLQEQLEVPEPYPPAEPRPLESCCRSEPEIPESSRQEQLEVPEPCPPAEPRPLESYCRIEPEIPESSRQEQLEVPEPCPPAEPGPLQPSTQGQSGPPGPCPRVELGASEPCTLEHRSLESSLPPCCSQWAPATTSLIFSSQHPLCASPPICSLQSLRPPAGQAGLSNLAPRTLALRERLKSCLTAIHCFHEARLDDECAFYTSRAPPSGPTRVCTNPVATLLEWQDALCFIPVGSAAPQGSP
Test: GST pull-down of in vitro translated [^35S]-protein on glutathione beads, autoradiography (FIG. 7A)
Description: In vitro translated [³⁵S]-labeled trophinin, bystin or tastin was incubated with GST or GST-ErbB4 immobilized on glutathione beads. Bead-bound materials were visualized by autoradiography after gel electrophoresis. […] Bead-bound materials were visualized by autoradiography. Note that trophinin is captured by GSTErbB4 when bystin is present. […] HT-H cells treated with or without GWRQ peptide were subjected to immunoprecipitation with antiErbB4 antibody, followed by western blot analysis. Note that trophinin and bystin were co-immunoprecipitated with ErbB4 from cells not treated with GWRQ, whereas less trophinin was present in precipitates from GWRQ-treated cells.
A GST-fusion protein pull-down assay was carried out as described (Swaffield, J C, et al. 1996). Trophinin, bystin, and tastin proteins were produced as [³⁵S]-methionine labeled proteins using an vitro transcription and translation kit (TnT, Promega), according to the manufacturer's protocol. [³⁵S]-trophinin, [³⁵S]-bystin, and [³⁵S]-tastin were mixed individually with GSTErbB4 immobilized on glutathione beads in binding buffer (Swaffield, J C, et al. 1996) at 4° C. for 1 hour. After washing unbound materials with binding buffer, bead-bound material was eluted by boiling in SDS sample buffer. [³⁵S]-labeled proteins eluted were analyzed by SDS-PAGE followed by fluorography.

binding result: no binding
B1: GST-ErbB4 fusion protein (cytoplasmic domain of human ErbB4) (other, UniProt Q15303 676-1308, looked up)
chain: RRKSIKKKRALRRFLETELVEPLTPSGTAPNQAQLRILKETELKRVKVLGSGAFGTVYKGIWVPEGETVKIPVAIKILNETTGPKANVEFMDEALIMASMDHPHLVRLLGVCLSPTIQLVTQLMPHGCLLEYVHEHKDNIGSQLLLNWCVQIAKGMMYLEERRLVHRDLAARNVLVKSPNHVKITDFGLARLLEGDEKEYNADGGKMPIKWMALECIHYRKFTHQSDVWSYGVTIWELMTFGGKPYDGIPTREIPDLLEKGERLPQPPICTIDVYMVMVKCWMIDADSRPKFKELAAEFSRMARDPQRYLVIQGDDRMKLPSPNDSKFFQNLLDEEDLEDMMDAEEYLVPQAFNIPPPIYTSRARIDSNRSEIGHSPPPAYTPMSGNQFVYRDGGFAAEQGVSVPYRAPTSTIPEAPVAQGATAEIFDDSCCNGTLRKPVAPHVQEDSSTQRYSADPTVFAPERSPRGELDEEGYMTPMRDKPKQEYLNPVEENPFVSRRKNGDLQALDNPEYHNASNGPPKAEDEYVNEPLYLNTFANTLGKAEYLKNNILSMPEKAKKAFDNPDYWNHSLPPRSTLQHPDYLQEYSTKYFYKQNGRIRPIVAENPEYLSEFSLKPGTVLPPPPYRHRNTVV
notes: domain: cytoplasmic domain; Expressed in bacteria, immobilized on glutathione beads; Linker between GST and ErbB4 not described; not shown: glutathione S-transferase encoded by the vector pGEX-KG
